B1: mRNA-splicing (parent)
chain: AGUUGCUGCUGGGAGCUCCAGCACAGUGAAAUGGACAGAAGGGCAGAGCAA

Variants of: B1
Assay: exon inclusion enrichment index; higher = more inclusion; WT1 exon 5 minigene, HEK293

| Variant | exon inclusion enrichment index |
| --- | --- |
| AGUUGCUGCUGGGAGCUCCAGCACAGUGAAAUGGACAGAAGGGCAUCGCAA | 0.692 |
| AGUUGCUGCUGGGAGCUCCAGCACAGUGAAAUGGACAGAAGGGCAUGGCAA | 0.116 |
| AGUUGCUGCUGGGAGCUCCAGCACAGUGAAAUGGACAGAAGGGCAUUGCAA | 0.237 |
| AGUUGCUGCUGGGAGCUCCAGCACAGUGAAAUGGACAGAAGGGCAGCGCAA | 0.293 |
| AGUUGCUGCUGGGAGCUCCAGCACAGUGAAAUGGACAGAAGGGCAGCACAA | 0.0773 |
| AGUUGCUGCUGGGAGCUCCAGCACAGUGAAAUGGACAGAAGGGCAGCCCAA | 0.171 |
| AGUUGCUGCUGGGAGCUCCAGCACAGUGAAAUGGACAGAAGGGCAGCUCAA | 0.173 |
| AGUUGCUGCUGGGAGCUCCAGCACAGUGAAAUGGACAGAAGGGCAGGGCAA | 0.0334 |
| AGUUGCUGCUGGGAGCUCCAGCACAGUGAAAUGGACAGAAGGGCAGGACAA | 0.0368 |
| AGUUGCUGCUGGGAGCUCCAGCACAGUGAAAUGGACAGAAGGGCAGGCCAA | 0.0501 |
| AGUUGCUGCUGGGAGCUCCAGCACAGUGAAAUGGACAGAAGGGCAGGUCAA | 0.00564 |
| AGUUGCUGCUGGGAGCUCCAGCACAGUGAAAUGGACAGAAGGGCAGUGCAA | 0.105 |
| AGUUGCUGCUGGGAGCUCCAGCACAGUGAAAUGGACAGAAGGGCAGUACAA | 0.123 |
| AGUUGCUGCUGGGAGCUCCAGCACAGUGAAAUGGACAGAAGGGCAGUCCAA | 0.106 |
| AGUUGCUGCUGGGAGCUCCAGCACAGUGAAAUGGACAGAAGGGCAGUUCAA | 0.125 |
| AGUUGCUGCUGGGAGCUCCAGCACAGUGAAAUGGACAGAAGGGCAGAACAA | 0.46 |
| AGUUGCUGCUGGGAGCUCCAGCACAGUGAAAUGGACAGAAGGGCAGACCAA | 0.292 |
| AGUUGCUGCUGGGAGCUCCAGCACAGUGAAAUGGACAGAAGGGCAGAUCAA | 0.288 |
